The supplement of paper PMC11246515
± gives the standard deviation of the averaged measurements.

Test: total protein half-life in vivo (active degradation + dilution); higher = more stable protein
[1] = E. coli NCM3722 delta-clpP delta-lon delta-hslV, growth: N-lim chemostat, doubling time 6 h
[2] = E. coli NCM3722 delta-clpP, growth: N-lim chemostat, doubling time 6 h
[3] = E. coli NCM3722 delta-hslV, growth: N-lim chemostat, doubling time 6 h
[4] = E. coli NCM3722 delta-lon, growth: N-lim chemostat, doubling time 6 h
[5] = E. coli NCM3722 delta-smpB, growth: N-lim chemostat, doubling time 6 h
[6] = wild type E. coli NCM3722, growth: C-lim chemostat, doubling time 3 h
[7] = wild type E. coli NCM3722, growth: C-lim chemostat, doubling time 6 h
[8] = wild type E. coli NCM3722, growth: C-lim chemostat, doubling time 12 h
[9] = wild type E. coli NCM3722, growth: N-lim chemostat, doubling time 6 h
[10] = wild type E. coli NCM3722, growth: N-lim chemostat, doubling time 12 h
[11] = wild type E. coli NCM3722, growth: P-lim chemostat, doubling time 6 h
[12] = wild type E. coli NCM3722, growth: P-lim chemostat, doubling time 12 h

Sequence | total protein half-life in vivo [1] | total protein half-life in vivo [2] | total protein half-life in vivo [3] | total protein half-life in vivo [4] | total protein half-life in vivo [5] | total protein half-life in vivo [6] | total protein half-life in vivo [7] | total protein half-life in vivo [8] | total protein half-life in vivo [9] | total protein half-life in vivo [10] | total protein half-life in vivo [11] | total protein half-life in vivo [12]
MTTLLNPYFGEFGGMYVPQILMPALRQLEEAFVSAQKDPEFQAQFNDLLKNYAGRPTALTKCQNITAGTNTTLYLKREDLLHGGAHKTNQVLGQALLAKRMGKTEIIAETGAGQHGVASALASALLGLKCRIYMGAKDVERQSPNVFRMRLMGAEVIPVHSGSATLKDACNEALRDWSGSYETAHYMLGTAAGPHPYPTIVREFQRMIGEETKAQILEREGRLPDAVIACVGGGSNAIGMFADFINETNVGLIGVEPGGHGIETGEHGAPLKHGRVGIYFGMKAPMMQTEDGQIEESYSISAGLDFPSVGPQHAYLNSTGRADYVSITDDEALEAFKTLCLHEGIIPALESSHALAHALKMMRENPDKEQLLVVNLSGRGDKDIFTVHDILKARGEI [P0A879] | 3.87 ± 0.32 h | 3.49 ± 0.14 h | 3.48 ± 0.17 h | 3.69 ± 0.27 h | 3.78 ± 0.36 h | 2.95 ± 0.1 h | 5.28 ± 0.27 h | 9.833 ± 0.072 h | 3.54 ± 0.042 h | 5.38 ± 0.17 h | 6.4 ± 1.5 h | 11.5 ± 1.2 h
MIRSMTAYARREIKGEWGSATWEMRSVNQRYLETYFRLPEQFRSLEPVVRERIRSRLTRGKVECTLRYEPDVSAQGELILNEKLAKQLVTAANWVKMQSDEGEINPVDILRWPGVMAAQEQDLDAIAAEILAALDGTLDDFIVARETEGQALKALIEQRLEGVTAEVVKVRSHMPEILQWQRERLVAKLEDAQVQLENNRLEQELVLLAQRIDVAEELDRLEAHVKETYNILKKKEAVGRRLDFMMQEFNRESNTLASKSINAEVTNSAIELKVLIEQMREQIQNIE | 4.67 ± 0.13 h | 4.26 ± 0.17 h | 4.15 ± 0.007 h | 4.46 ± 0.36 h | 4.24 ± 0.048 h | 3.203 ± 0.032 h | 5.69 ± 0.37 h | 9.42 ± 0.49 h | 4.21 ± 0.05 h | 6.64 ± 0.2 h | 5.83 ± 0.37 h | 12.9 ± 1.8 h
MHENQQPQTEAFELSAAEREAIEHEMHHYEDPRAASIEALKIVQKQRGWVPDGAIHAIADVLGIPASDVEGVATFYSQIFRQPVGRHVIRYCDSVVCHINGYQGIQAALEKKLNIKPGQTTFDGRFTLLPTCCLGNCDKGPNMMIDEDTHAHLTPEAIPELLERYK [P0AFD1] | 5.62 ± 0.92 h | 5.62 ± 0.45 h | – | 5.97 ± 0.51 h | 6.57 ± 0.34 h | 2.65 ± 0.54 h | 4.79 ± 0.22 h | 8.87 ± 1.4 h | 5.04 ± 0.18 h | 10.3 ± 0.36 h | 4.85 ± 0.61 h | 11 ± 0.14 h
MEFSVKSGSPEKQRSACIVVGVFEPRRLSPIAEQLDKISDGYISALLRRGELEGKPGQTLLLHHVPNVLSERILLIGCGKERELDERQYKQVIQKTINTLNDTGSMEAVCFLTELHVKGRNNYWKVRQAVETAKETLYSFDQLKTNKSEPRRPLRKMVFNVPTRRELTSGERAIQHGLAIAAGIKAAKDLGNMPPNICNAAYLASQARQLADSYSKNVITRVIGEQQMKELGMHSYLAVGQGSQNESLMSVIEYKGNASEDARPIVLVGKGLTFDSGGISIKPSEGMDEMKYDMCGAAAVYGVMRMVAELQLPINVIGVLAGCENMPGGRAYRPGDVLTTMSGQTVEVLNTDAEGRLVLCDVLTYVERFEPEAVIDVATLTGACVIALGHHITGLMANHNPLAHELIAASEQSGDRAWRLPLGDEYQEQLESNFADMANIGGRPGGAITAGCFLSRFTRKYNWAHLDIAGTAWRSGKAKGATGRPVALLAQFLLNRAGFNGEE | 6.37 ± 0.15 h | 6.34 ± 0.31 h | 6.11 ± 0.078 h | 7.01 ± 0.64 h | 5.81 ± 0.16 h | 3.38 ± 0.097 h | 6.45 ± 0.3 h | 11.7 ± 1 h | 6.215 ± 0.053 h | 12.7 ± 1.1 h | 6.33 ± 0.09 h | 12.7 ± 0.79 h
METVAYADFARLEMRVGKIVEVKRHENADKLYIVQVDVGQKTLQTVTSLVPYYSEEELMGKTVVVLCNLQKAKMRGETSECMLLCAETDDGSESVLLTPERMMPAGVRVV | 5.14 ± 0.11 h | 5.33 h | – | – | – | 2.97 ± 0.48 h | 4.74 ± 0.58 h | 8.53 ± 0.87 h | – | – | – | –
MLTSFKLHSLKPYTLKSSMILEIITYILCFFSMIIAFVDNTFSIKIYNITAIVCLLSLILRGRQENYNIKNLILPLSIFLIGLLDLIWYSAFKVDNSPFRATYHSYLNTAKIFIFGSFIVFLTLTSQLKSKKESVLYTLYSLSFLIAGYAMYINSIHENDRISFGVGTATGAAYSTMLIGIVSGVAILYTKKNHPFLFLLNSCAVLYVLALTQTRATLLLFPIICVAALIAYYNKSPKKFTSSIVLLIAILASIVIIFNKPIQNRYNEALNDLNSYTNANSVTSLGARLAMYEIGLNIFIKSPFSFRSAESRAESMNLLVAEHNRLRGALEFSNVHLHNEIIEAGSLKGLMGIFSTLFLYFSLFYIAYKKRALGLLILTLGIVGIGLSDVIIWARSIPIIIISAIVLLLVINNRNNTIN | – | – | – | – | 5.65 ± 0.45 h | 3.42 h | – | – | – | – | – | –
MHLITQKALKDAAEKYPQHKTELVALGNTIAKGYFKKPESLKAVFPSLDNFKYLDKHYVFNVGGNELRVVAMVFFESQKCYIREVMTHKEYDFFTAVHRTKGKK | – | – | – | – | – | – | – | – | – | – | 6.72 h | 10.1 ± 0.64 h
MSVIKMTDLDLAGKRVFIRADLNVPVKDGKVTSDARIRASLPTIELALKQGAKVMVTSHLGRPTEGEYNEEFSLLPVVNYLKDKLSNPVRLVKDYLDGVDVAEGELVVLENVRFNKGEKKDDETLSKKYAALCDVFVMDAFGTAHRAQASTHGIGKFADVACAGPLLAAELDALGKALKEPARPMVAIVGGSKVSTKLTVLDSLSKIADQLIVGGGIANTFIAAQGHDVGKSLYEADLVDEAKRLLTTCNIPVPSDVRVATEFSETAPATLKSVNDVKADEQILDIGDASAQELAEILKNAKTILWNGPVGVFEFPNFRKGTEIVANAIADSEAFSIAGGGDTLAAIDLFGIADKISYISTGGGAFLEFVEGKVLPAVAMLEERAKK [P0A799] | 5.45 ± 0.47 h | 5.27 ± 0.49 h | 4.91 ± 0.11 h | 5.68 ± 0.45 h | 4.66 ± 0.14 h | 3.28 ± 0.049 h | 6.24 ± 0.46 h | 12.8 ± 0.99 h | 4.92 ± 0.11 h | 8.6 ± 0.45 h | 5.69 ± 0.4 h | 12 ± 0.29 h
